This note sets out measurements from patent publication US20220213203A1 (MacroGenics, published 2022).

The target in experiment [1] is Cynomolgus CD3ε/δ (cynomolgus monkey) (UniProt Q95LI5). Nature of the experiment: kinetic binding analysis; method not given.
Another experiment deals with Human CD3ε/δ (human) (UniProt P07766). Nature of the experiment: kinetic binding analysis; method not given.
Experiment [2] concerns the target CD123 as arrayed by human cells (human, UniProt P26951 19-378). Nature of the experiment: cell-based or functional assay.

Chain of Cynomolgus CD3ε/δ (cynomolgus monkey) (Q95LI5 22-117, stated change not applied, chain 1 of 2): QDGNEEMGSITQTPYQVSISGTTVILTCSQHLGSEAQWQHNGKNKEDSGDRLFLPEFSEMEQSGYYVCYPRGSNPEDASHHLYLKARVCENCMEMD
Chain of Cynomolgus CD3ε/δ (cynomolgus monkey) (Q95LI8 22-105, stated change not applied, chain 2 of 2, further chain): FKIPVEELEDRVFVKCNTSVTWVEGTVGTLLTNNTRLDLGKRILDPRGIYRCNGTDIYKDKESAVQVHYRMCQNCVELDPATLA
Chain of Human CD3ε/δ (human) (P07766 23-126, stated change not applied, chain 1 of 2): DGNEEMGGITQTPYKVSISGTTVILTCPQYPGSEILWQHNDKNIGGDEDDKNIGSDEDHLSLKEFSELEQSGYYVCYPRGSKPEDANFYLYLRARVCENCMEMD
Chain of Human CD3ε/δ (human) (P04234 22-105, stated change not applied, chain 2 of 2, further chain): as the sequence (Q95LI8 22-105, stated change not applied, chain 2 of 2, further chain) above, with V5I, K15N, V20I, T32S, N33D, N34I, A64T, N74S, L83V counted along it
Chain of CD123 as arrayed by human cells (P26951 19-378): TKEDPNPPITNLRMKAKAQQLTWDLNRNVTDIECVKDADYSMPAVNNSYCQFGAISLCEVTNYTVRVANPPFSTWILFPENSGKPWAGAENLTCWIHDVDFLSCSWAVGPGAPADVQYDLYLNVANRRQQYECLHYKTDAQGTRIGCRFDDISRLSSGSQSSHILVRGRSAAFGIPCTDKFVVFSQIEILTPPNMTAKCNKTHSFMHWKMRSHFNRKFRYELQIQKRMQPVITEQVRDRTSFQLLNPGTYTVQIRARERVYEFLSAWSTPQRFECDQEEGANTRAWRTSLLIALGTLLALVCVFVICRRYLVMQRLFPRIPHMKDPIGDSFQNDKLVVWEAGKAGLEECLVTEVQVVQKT

B1: DART-A (bispecific antibody)
chain 1: QAVVTQEPSLTVSPGGTVTLTCRSSTGAVTTSNYANWVQQKPGQAPRGLIGGTNKRAPWTPARFSGSLLGGKAALTITGAQAEDEADYYCALWYSNLWVFGGGTKLTVLGGGGSGGGGEVQLVQSGAELKKPGASVKVSCKASGYTFTDYYMKWVRQAPGQGLEWIGDIIPSNGATFYNQKFKGRVTITVDKSTSTAYMELSSLRSEDTAVYYCARSHLLRASWFAYWGQGTLVTVSSGGCGGGEVAALEKEVAALEKEVAALEKEVAALEK
chain 2: DFVMTQSPDSLAVSLGERVTMSCKSSQSLLNSGNQKNYLTWYQQKPGQPPKLLIYWASTRESGVPDRFSGSGSGTDFTLTISSLQAEDVAVYYCQNDYSYPYTFGQGTKLEIKGGGSGGGGEVQLVESGGGLVQPGGSLRLSCAASGFTFSTYAMNWVRQAPGKGLEWVGRIRSKYNNYATYYADSVKDRFTISRDDSKNSLYLQMNSLKTEDTAVYYCVRHGNFGNSYVSWFAYWGQGTLVTVSSGGCGGGKVAALKEKVAALKEKVAALKEKVAALKE
The Kd is the equilibrium constant for the complex coming apart. A lower Kd goes with a tighter complex. The term koff denotes the first-order rate constant of dissociation. Usually kon stands for the second-order rate constant of association. Read a low kon as slow association. In experiment [1], B1 returned a Kd of 9.2 nM, a dissociation rate constant (koff) of 0.005 s⁻¹ and a kon of 550000 M⁻¹ s⁻¹. Also, in the experiment with Human CD3ε/δ (human), the dissociation constant Kd amounted to 9 nM, the koff was determined as 0.005 s⁻¹ and the on-rate constant (kon) came out at 570000 M⁻¹ s⁻¹. In addition, in experiment [2], the “EC50 of redirected killing, Kasumi-3 target cells, E:T = 10:1” value was found to be 0.01 ng/mL; the “EC50 of redirected killing, Molm13 target cells, E:T = 10:1” value came out at 0.18 ng/mL; the “EC50 of redirected killing, RS4-11 target cells, E:T = 10:1” value amounted to 0.5 ng/mL; the “EC50 of redirected killing, TF-1 target cells, E:T = 10:1” value amounted to 0.46 ng/mL. Further, in experiment [2], the “EC50 of redirected killing, THP-1 target cells, E:T = 10:1” value came out at 0.24 ng/mL.
